In article PMC6978347:

Target: polymerization-deficient p62^1–102 (D69A/D73A) (human) (UniProt Q13501)
Assay: ITC; VP-ITC, 25 °C, 10 mM HEPES pH 7.5, 150 mM NaCl; p62 D69A/D73A in the cell (5–20 μM), partner PB1 domain in the syringe (25–100 μM); one-site model; mean of three measurements

Kd: 26.8 nM
B1: MEKK3^43–127 (MEKK3–PB1) (domain or fragment)
chain: SDVRIKFEHNGERRIIAFSRPVKYEDVEHKVTTVFGQPLDLHYMNNELSILLKNQDDLDKAIDILDRSSSMKSLRILLLSQDRNH
